Results as given in paper PMC12599920.

Target: Mushroom body defect coiled-coil domain (Mud^CC)
Experiment: saturation binding (MBP pull-down, gel quantification)
Conditions: read off a plot
[1] = right plot, 20 µM MudCC, parent: est. 130

Q: “3OCR_ΔCT, P. syringae aldolase enzyme with the CThelix deleted FLEaaa” was tested. Which response (10 µM MudCC, parent: est. 110) did it give?
A: 27 AU

Q: What about the response (20 µM MudCC, parent: est. 140) of the same substance?
A: 46 AU

Q: What about the response (40 µM MudCC, parent: est. 140) of the same substance?
A: 57 AU

Q: For “MBP:Hts (110-310), CThelix truncation of the Hts aldolase domain (from UniProt Q02645) H164A; T167A”, which response (left plot, 5 µM MudCC, parent: est. 110) is on record?
A: 100 AU

Q: And the response (left plot, 20 µM MudCC, parent: est. 130)?
A: 120 AU

Q: For “MBP:Hts (110-310), CThelix truncation of the Hts aldolase domain (from UniProt Q02645) L139A”, which response (right plot, 5 µM MudCC, parent: est. 110) is on record?
A: 38 AU

Q: And the response (right plot, 10 µM MudCC, parent: est. 120)?
A: 86 AU

Q: And the response [1]?
A: 140 AU

Q: Which response (right plot, 5 µM MudCC, parent: est. 99) does the source give for “MBP:Hts (110-310), CThelix truncation of the Hts aldolase domain (from UniProt Q02645) R128A” here?
A: 120 AU

Q: And the response [1]?
A: 140 AU

Q: What does the source list for “MBP:Hts (110-310), CThelix truncation of the Hts aldolase domain (from UniProt Q02645) Y159A; L162A; E165A”?
A: response (left plot, 5 µM MudCC, parent: est. 83): 1 AU; response (left plot, 20 µM MudCC, parent: est. 110): 5 AU

Q: How did the response (5 µM MudCC, parent: est. 98) turn out when “MBP:Hts (110-401), full-length Hts aldolase domain (from UniProt Q02645) D310A” was run?
A: 130 AU

Q: What about the response (20 µM MudCC, parent: est. 140) of the same substance?
A: 150 AU

Q: Which results are given for “MBP:Hts (110-401), full-length Hts aldolase domain (from UniProt Q02645) Q151A; E152A”?
A: response (5 µM MudCC, parent: est. 98): 93 AU; response (20 µM MudCC, parent: est. 140): 150 AU

Q: “MBP:Hts (110-401), full-length Hts aldolase domain (from UniProt Q02645) Q177A; V181A” was tested. Which response (5 µM MudCC, parent: est. 98) did it give?
A: 110 AU

Q: What about the response (20 µM MudCC, parent: est. 140) of the same substance?
A: 150 AU

Q: For “MBP:Hts (110-401), full-length Hts aldolase domain (from UniProt Q02645) R205A; D207A”, which response (5 µM MudCC, parent: est. 98) is on record?
A: 120 AU

Q: And the response (20 µM MudCC, parent: est. 140)?
A: 140 AU

Q: Which response (left plot, 5 µM MudCC, parent: est. 120) does the source give for “MBP:Hts (110-401), full-length Hts aldolase domain (from UniProt Q02645) Y159A; L162A; E165A” here?
A: 7 AU

Q: What about the response (left plot, 20 µM MudCC, parent: est. 140) of the same substance?
A: 24 AU
